Experimental data reported in the supplement of paper PMC9876800.

System: peptide library, one residue held at a place counted from the S/T acceptor
Assay: relative phosphorylation of the sub-library (ratio to the mean residue at this position); higher = residue favoured
Conditions: human
Method in brief: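 Human or orthologue kinase constructs, purified and recombinant, were incubated under kinase-specific conditions in 384-well plates with biotinylated degenerate peptide sub-libraries. Each sub-library fixed one residue at one position around a central Ser/Thr. Incubations lasted 90 min with peptides at 50 μM and 50 μM ATP spiked with γ-32P-ATP, after which spots on streptavidin membranes were phosphorimaged and quantified by densitometry. Relative sub-library phosphorylation is a ratio to the mean residue at that position.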

NUAK1, construct: Full length, sequence (O60285 whole entry, looked up): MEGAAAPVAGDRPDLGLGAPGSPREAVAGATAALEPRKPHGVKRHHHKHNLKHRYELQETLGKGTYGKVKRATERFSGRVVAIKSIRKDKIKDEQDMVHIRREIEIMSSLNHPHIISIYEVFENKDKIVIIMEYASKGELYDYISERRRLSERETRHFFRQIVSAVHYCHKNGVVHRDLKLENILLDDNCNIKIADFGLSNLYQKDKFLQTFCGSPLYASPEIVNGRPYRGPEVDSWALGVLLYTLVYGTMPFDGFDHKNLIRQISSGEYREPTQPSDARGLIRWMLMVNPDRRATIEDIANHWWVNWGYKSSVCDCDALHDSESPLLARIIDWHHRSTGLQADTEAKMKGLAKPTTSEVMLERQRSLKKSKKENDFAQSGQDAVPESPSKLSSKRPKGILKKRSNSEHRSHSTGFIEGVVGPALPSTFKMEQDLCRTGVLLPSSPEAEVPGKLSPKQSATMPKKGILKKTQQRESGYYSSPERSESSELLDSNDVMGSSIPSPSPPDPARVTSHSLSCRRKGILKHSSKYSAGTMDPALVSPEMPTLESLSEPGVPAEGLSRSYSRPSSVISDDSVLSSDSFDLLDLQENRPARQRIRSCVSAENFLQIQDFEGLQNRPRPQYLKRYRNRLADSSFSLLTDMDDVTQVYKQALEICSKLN
MINK1, construct: aa1-320, sequence (Q8N4C8 1-320, looked up): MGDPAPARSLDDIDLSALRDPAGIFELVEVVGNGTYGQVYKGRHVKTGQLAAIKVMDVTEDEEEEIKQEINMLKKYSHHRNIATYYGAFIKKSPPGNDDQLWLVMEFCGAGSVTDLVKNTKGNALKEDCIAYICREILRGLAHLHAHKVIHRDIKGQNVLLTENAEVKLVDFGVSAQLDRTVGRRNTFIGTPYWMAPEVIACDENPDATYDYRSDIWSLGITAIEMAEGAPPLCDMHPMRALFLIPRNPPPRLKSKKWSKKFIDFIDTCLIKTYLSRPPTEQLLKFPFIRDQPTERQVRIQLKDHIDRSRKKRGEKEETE
SBK1, construct: Full length, sequence (Q52WX2 whole entry, looked up): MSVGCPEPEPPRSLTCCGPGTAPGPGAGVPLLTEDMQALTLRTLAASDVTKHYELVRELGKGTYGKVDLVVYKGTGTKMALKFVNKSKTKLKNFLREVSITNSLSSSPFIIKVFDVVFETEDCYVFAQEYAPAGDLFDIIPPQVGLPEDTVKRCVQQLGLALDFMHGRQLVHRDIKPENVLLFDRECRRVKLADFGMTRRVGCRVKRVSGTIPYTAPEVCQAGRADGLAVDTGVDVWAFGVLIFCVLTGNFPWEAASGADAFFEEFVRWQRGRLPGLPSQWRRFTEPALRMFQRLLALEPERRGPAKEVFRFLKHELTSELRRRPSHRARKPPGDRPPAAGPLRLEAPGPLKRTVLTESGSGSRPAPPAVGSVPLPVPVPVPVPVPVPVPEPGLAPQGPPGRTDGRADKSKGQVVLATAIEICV
MAP4K2, construct: Full length, sequence (Q12851 whole entry, looked up): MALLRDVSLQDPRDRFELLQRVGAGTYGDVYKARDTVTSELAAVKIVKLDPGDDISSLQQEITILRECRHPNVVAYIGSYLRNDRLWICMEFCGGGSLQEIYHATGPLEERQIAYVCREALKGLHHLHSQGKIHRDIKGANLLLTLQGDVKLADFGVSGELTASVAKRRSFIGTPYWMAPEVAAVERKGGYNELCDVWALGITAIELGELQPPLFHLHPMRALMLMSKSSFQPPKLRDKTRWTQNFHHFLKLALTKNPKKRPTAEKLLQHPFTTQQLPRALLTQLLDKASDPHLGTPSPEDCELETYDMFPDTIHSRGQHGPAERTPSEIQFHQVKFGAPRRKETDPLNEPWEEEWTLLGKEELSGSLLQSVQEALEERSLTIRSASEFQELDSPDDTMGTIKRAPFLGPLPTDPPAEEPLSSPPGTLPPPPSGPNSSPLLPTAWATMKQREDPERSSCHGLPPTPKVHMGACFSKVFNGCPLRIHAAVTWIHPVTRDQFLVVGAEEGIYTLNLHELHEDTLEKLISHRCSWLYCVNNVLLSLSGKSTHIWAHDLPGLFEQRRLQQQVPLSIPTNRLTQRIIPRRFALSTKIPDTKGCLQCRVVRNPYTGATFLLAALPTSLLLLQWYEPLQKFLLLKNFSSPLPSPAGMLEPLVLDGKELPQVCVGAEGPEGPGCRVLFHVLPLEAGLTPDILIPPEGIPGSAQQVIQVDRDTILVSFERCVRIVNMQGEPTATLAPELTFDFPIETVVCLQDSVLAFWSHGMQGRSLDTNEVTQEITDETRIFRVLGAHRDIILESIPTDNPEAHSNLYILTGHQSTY

MAP4K2, construct: Full length (from UniProt Q12851)
relative phosphorylation
Conditions | at +1 | at +2 | at +3 | at +4 | at -1 | at -2 | at -3 | at -4 | at -5
A fixed | 0.468 | 0.739 | 0.703 | 0.786 | 0.858 | 1.1 | 0.767 | 0.881 | 0.946
D fixed | 0.266 | 0.979 | 0.592 | 0.804 | 0.927 | 0.912 | 0.852 | 1.09 | 1.01
E fixed | 0.259 | 0.759 | 0.52 | 0.815 | 0.595 | 0.575 | 0.769 | 1.03 | 0.889
F fixed | 1.07 | 0.58 | 0.762 | 0.866 | 0.722 | 1.27 | 0.852 | 1.09 | 1.12
G fixed | 0.742 | 0.986 | 0.999 | 1.07 | 1.61 | 1.19 | 1.45 | 1.37 | 1.26
H fixed | 0.576 | 1.03 | 1.1 | 1.06 | 1.17 | 1.29 | 1.09 | 0.999 | 1.07
I fixed | 1.6 | 0.396 | 0.506 | 0.662 | 0.251 | 0.574 | 0.457 | 0.596 | 0.629
K fixed | 0.519 | 2.31 | 2.03 | 1.65 | 1.48 | 0.754 | 1.69 | 1.05 | 1.18
L fixed | 3.02 | 0.649 | 0.694 | 0.82 | 0.868 | 0.634 | 0.558 | 0.688 | 0.662
M fixed | 3.03 | 0.78 | 0.773 | 0.938 | 1.03 | 0.778 | 0.706 | 0.852 | 0.858
N fixed | 0.852 | 1.24 | 1.26 | 1.2 | 1.88 | 1.14 | 1.28 | 0.955 | 0.971
P fixed | 0.398 | 1.21 | 1.29 | 1.03 | 0.954 | 1.09 | 1.3 | 1.38 | 1.12
Q fixed | 0.581 | 1.11 | 0.996 | 1.22 | 1.09 | 0.908 | 1.05 | 0.921 | 0.834
R fixed | 0.55 | 2.4 | 2.41 | 1.41 | 1.43 | 1.01 | 1.51 | 1.12 | 1.24
V fixed | 0.749 | 0.486 | 0.583 | 0.665 | 0.311 | 0.66 | 0.438 | 0.596 | 0.765
W fixed | 1.43 | 0.652 | 1 | 1.15 | 0.765 | 1.38 | 1.19 | 1.29 | 1.28
Y fixed | 0.892 | 0.689 | 0.783 | 0.866 | 1.05 | 1.75 | 1.04 | 1.1 | 1.16
pThr fixed | 1.48 | 1.36 | 1.3 | 0.836 | 0.698 | 1.24 | 1.13 | 1.2 | 1.27
pTyr fixed | 0.518 | 0.636 | 0.953 | 0.756 | 0.759 | 0.98 | 1.08 | 1.11 | 1.15

MINK1, construct: aa1-320 (from UniProt Q8N4C8)
relative phosphorylation
Conditions | at +1 | at +2 | at +3 | at +4 | at -1 | at -2 | at -3 | at -4 | at -5
A fixed | 0.635 | 0.904 | 0.864 | 0.99 | 0.952 | 1.11 | 1.02 | 1.08 | 1.28
D fixed | 0.177 | 0.699 | 0.464 | 0.556 | 0.854 | 0.746 | 0.867 | 1 | 0.995
E fixed | 0.187 | 0.749 | 0.405 | 0.574 | 0.536 | 0.498 | 0.818 | 0.891 | 0.801
F fixed | 1.16 | 0.577 | 0.764 | 0.533 | 0.778 | 1.55 | 0.946 | 1.07 | 0.8
G fixed | 0.708 | 1.09 | 0.959 | 1.28 | 1.69 | 1.19 | 1.19 | 1.19 | 1.2
H fixed | 0.783 | 1.25 | 1.25 | 1.22 | 1.31 | 1.13 | 1.2 | 1.08 | 1.09
I fixed | 1.91 | 0.664 | 0.726 | 0.983 | 0.385 | 0.769 | 0.784 | 0.793 | 0.894
K fixed | 0.669 | 1.93 | 2.35 | 1.94 | 1.25 | 0.713 | 1.01 | 0.947 | 0.979
L fixed | 2.89 | 0.776 | 0.869 | 0.75 | 0.926 | 0.789 | 0.829 | 0.78 | 0.73
M fixed | 2.32 | 0.86 | 0.681 | 0.897 | 1.15 | 0.952 | 0.95 | 0.917 | 0.87
N fixed | 0.677 | 0.937 | 0.721 | 1.04 | 1.49 | 1.03 | 1.26 | 1.03 | 1.09
P fixed | 0.194 | 1.09 | 0.892 | 0.943 | 0.646 | 0.675 | 0.846 | 0.959 | 1.06
Q fixed | 0.587 | 0.914 | 0.818 | 0.926 | 1.11 | 0.882 | 0.9 | 0.996 | 0.958
R fixed | 0.65 | 2.39 | 2.76 | 1.74 | 1.4 | 0.821 | 1.15 | 0.971 | 1.19
V fixed | 1.06 | 0.763 | 0.773 | 0.743 | 0.536 | 0.893 | 0.858 | 0.966 | 0.98
W fixed | 1.45 | 0.591 | 0.928 | 1.07 | 0.822 | 1.38 | 1.28 | 1.18 | 0.978
Y fixed | 0.94 | 0.815 | 0.778 | 0.818 | 1.17 | 1.87 | 1.09 | 1.15 | 1.1
pThr fixed | 0.703 | 0.621 | 0.744 | 0.601 | 0.629 | 0.963 | 1.18 | 1.07 | 1.14
pTyr fixed | 0.282 | 0.462 | 0.623 | 0.51 | 0.797 | 0.745 | 1.04 | 0.679 | 1.06

NUAK1, construct: Full length (from UniProt O60285)
relative phosphorylation
Conditions | at +1 | at +2 | at +3 | at +4 | at -1 | at -2 | at -3 | at -4 | at -5
A fixed | 0.726 | 0.749 | 0.566 | 0.716 | 1.14 | 1.47 | 0.552 | 1.04 | 0.835
D fixed | 0.449 | 0.564 | 0.844 | 0.464 | 0.661 | 0.734 | 0.4 | 0.474 | 0.611
E fixed | 0.545 | 0.312 | 0.418 | 0.359 | 0.488 | 0.532 | 0.397 | 0.867 | 0.436
F fixed | 2.2 | 0.695 | 1.33 | 1.13 | 0.475 | 0.586 | 0.472 | 0.91 | 1.12
G fixed | 0.839 | 1.15 | 0.566 | 0.81 | 1.27 | 0.931 | 0.454 | 0.673 | 0.609
H fixed | 0.927 | 1.14 | 1.56 | 1.08 | 0.951 | 0.821 | 1.12 | 0.995 | 0.772
I fixed | 0.559 | 1.16 | 0.888 | 1.76 | 0.261 | 0.557 | 0.322 | 0.792 | 2.04
K fixed | 1.19 | 1.09 | 1.22 | 1.01 | 2.27 | 0.955 | 2.72 | 1.16 | 1.2
L fixed | 0.666 | 1.19 | 0.907 | 2.45 | 0.613 | 0.489 | 0.395 | 1.12 | 2.08
M fixed | 1.1 | 1.17 | 1.08 | 1.69 | 0.937 | 0.837 | 0.598 | 1.56 | 1.33
N fixed | 1.2 | 1.52 | 1.53 | 0.786 | 1.58 | 4.11 | 0.691 | 0.776 | 0.631
P fixed | 0.483 | 0.753 | 0.434 | 0.765 | 1.63 | 0.53 | 0.665 | 0.929 | 0.727
Q fixed | 1.72 | 0.954 | 1 | 0.743 | 1.37 | 1.51 | 0.786 | 0.934 | 0.582
R fixed | 1.25 | 1.7 | 0.909 | 0.617 | 1.6 | 0.926 | 6.15 | 1.41 | 1.24
V fixed | 0.687 | 1.02 | 0.735 | 0.947 | 0.375 | 0.864 | 0.288 | 0.924 | 1.21
W fixed | 0.935 | 0.929 | 1.58 | 0.809 | 0.571 | 0.583 | 0.521 | 1.54 | 0.775
Y fixed | 1.51 | 0.889 | 1.42 | 0.869 | 0.822 | 0.554 | 0.468 | 0.891 | 0.802
pThr fixed | 0.684 | 0.497 | 0.396 | 0.362 | 0.291 | 0.397 | 0.352 | 0.518 | 0.373
pTyr fixed | 0.597 | 0.273 | 0.337 | 0.346 | 0.746 | 0.419 | 0.445 | 0.438 | 0.547

SBK1, construct: Full length (from UniProt Q52WX2)
relative phosphorylation
Conditions | at +1 | at +2 | at +3 | at +4 | at -1 | at -2 | at -3 | at -4 | at -5
A fixed | 0.96 | 0.91 | 0.834 | 0.989 | 0.983 | 1.24 | 0.407 | 1.08 | 0.746
D fixed | 0.948 | 1.5 | 1.36 | 1.18 | 1.06 | 0.195 | 0.0944 | 0.269 | 0.195
E fixed | 0.863 | 1.29 | 1.41 | 1.01 | 0.51 | 0.239 | 0.113 | 0.58 | 0.186
F fixed | 0.737 | 1 | 0.925 | 0.851 | 0.808 | 0.782 | 0.161 | 0.922 | 2.33
G fixed | 1.32 | 1.01 | 1.18 | 1.25 | 1.22 | 0.42 | 0.151 | 0.634 | 0.383
H fixed | 0.958 | 1.36 | 1.11 | 1.14 | 1.38 | 1.02 | 0.37 | 1.29 | 0.5
I fixed | 0.817 | 0.677 | 0.747 | 0.787 | 0.251 | 0.861 | 0.133 | 0.753 | 1.97
K fixed | 0.485 | 0.494 | 0.622 | 0.828 | 0.982 | 1.71 | 1.76 | 1.99 | 0.506
L fixed | 0.93 | 0.881 | 0.812 | 0.905 | 0.862 | 0.957 | 0.166 | 0.656 | 1.83
M fixed | 0.852 | 0.849 | 0.793 | 0.983 | 1.15 | 1.75 | 0.184 | 0.998 | 1.09
N fixed | 1.35 | 1.18 | 1.07 | 1.18 | 1.94 | 0.609 | 0.187 | 0.49 | 0.255
P fixed | 2.53 | 1.08 | 1.64 | 1.69 | 1.74 | 0.27 | 0.188 | 0.275 | 1.15
Q fixed | 1.12 | 1.17 | 1.04 | 0.994 | 1.07 | 1.21 | 0.581 | 1.18 | 0.597
R fixed | 0.531 | 0.682 | 0.619 | 0.709 | 0.828 | 2.71 | 12 | 2.72 | 1.07
V fixed | 0.953 | 0.693 | 0.77 | 0.699 | 0.401 | 1.27 | 0.153 | 0.95 | 1.22
W fixed | 0.834 | 1.05 | 1.09 | 0.958 | 0.658 | 0.792 | 0.198 | 0.926 | 2.21
Y fixed | 0.816 | 1.16 | 0.979 | 0.858 | 1.16 | 0.961 | 0.178 | 1.28 | 0.746
pThr fixed | 0.598 | 1.1 | 1.02 | 1.4 | 0.203 | 0.181 | 0.105 | 0.261 | 0.193
pTyr fixed | 0.717 | 1.35 | 1.36 | 1.6 | 0.745 | 0.215 | 0.0961 | 0.24 | 0.374
